Measured values as given in paper PMC9482650, “Quantitative fragmentomics allow affinity mapping of interactomes” (Nature Communications, 2022).
One block for each binder: values may come before it.

Columns and labels:
Experiment in all cases: holdup assay
Design in all cases: key: below the threshold = too weak to quantify, mostly under pKd 3.1 to 4
TJP3_3, O95049 = biological target: T1, TJP3_3, O95049
T1 sequence (O95049 375-456, limits assumed, looked up): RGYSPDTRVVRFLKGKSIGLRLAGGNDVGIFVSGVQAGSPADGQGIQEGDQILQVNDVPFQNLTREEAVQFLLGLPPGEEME

PTPN13_1, Q12923 = biological target: T2, PTPN13_1, Q12923
T2 sequence (Q12923 1088-1188, limits assumed, looked up): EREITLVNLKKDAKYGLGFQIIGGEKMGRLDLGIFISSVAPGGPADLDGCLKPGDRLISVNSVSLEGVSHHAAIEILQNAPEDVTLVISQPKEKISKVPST

NHERF4_4, Q86UT5 = biological target: NHERF4_4, Q86UT5
Inadl_9, Q8NI35 = biological target: Inadl_9, Q8NI35
TX1BP3, O14907 = biological target: T3, TX1BP3, O14907
T3 sequence (O14907 10-122, limits assumed, looked up): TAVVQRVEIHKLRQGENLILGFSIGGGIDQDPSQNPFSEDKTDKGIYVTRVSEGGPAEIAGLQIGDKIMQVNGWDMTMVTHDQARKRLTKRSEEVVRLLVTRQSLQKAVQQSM

GRIP1_2, Q9Y3R0 = biological target: T4, GRIP1_2, Q9Y3R0
T4 sequence (Q9Y3R0 145-248, limits assumed, looked up): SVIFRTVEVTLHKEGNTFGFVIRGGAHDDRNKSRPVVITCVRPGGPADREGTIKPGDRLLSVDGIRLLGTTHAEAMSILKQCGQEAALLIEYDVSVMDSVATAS

LNX1_2, Q8TBB1 = biological target: LNX1_2, Q8TBB1
MPP2, Q14168 = biological target: T5, MPP2, Q14168
T5 sequence (Q14168 180-250, limits assumed, looked up): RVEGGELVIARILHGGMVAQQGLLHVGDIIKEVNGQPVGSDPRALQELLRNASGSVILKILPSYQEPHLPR

GIPC2, Q8TF65 = biological target: GIPC2, Q8TF65
Inadl_8, Q8NI35 = biological target: Inadl_8, Q8NI35
MAGI2_6, Q86UL8 = biological target: MAGI2_6, Q86UL8
NHERF3_3, Q5T2W1 = biological target: T6, NHERF3_3, Q5T2W1
T6 sequence (Q5T2W1 238-333, limits assumed, looked up): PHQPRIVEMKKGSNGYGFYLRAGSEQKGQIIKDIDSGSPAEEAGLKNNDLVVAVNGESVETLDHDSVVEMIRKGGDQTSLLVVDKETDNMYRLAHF

DLG3_2, Q92796 = biological target: T7, DLG3_2, Q92796
T7 sequence (Q92796 221-321, limits assumed, looked up): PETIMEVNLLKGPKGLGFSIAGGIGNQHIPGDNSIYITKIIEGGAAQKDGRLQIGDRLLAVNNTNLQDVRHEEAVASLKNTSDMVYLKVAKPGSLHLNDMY

Inadl_3, Q8NI35 = biological target: Inadl_3, Q8NI35
LNX1_1, Q8TBB1 = biological target: LNX1_1, Q8TBB1
CASK, O14936 = biological target: CASK, O14936
MAGI2_4, Q86UL8 = biological target: MAGI2_4, Q86UL8
SNTG1, Q9NSN8 = biological target: T8, SNTG1, Q9NSN8
T8 sequence (Q9NSN8 52-150, limits assumed, looked up): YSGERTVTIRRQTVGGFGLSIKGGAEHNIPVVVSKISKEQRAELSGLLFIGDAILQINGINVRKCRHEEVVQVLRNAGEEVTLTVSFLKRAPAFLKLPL

DLG4_2, P78352 = biological target: DLG4_2, P78352
MAGI1_1, Q96QZ7 = biological target: MAGI1_1, Q96QZ7
DLG3_1, Q92796 = biological target: T9, DLG3_1, Q92796
T9 sequence (Q92796 125-227, limits assumed, looked up): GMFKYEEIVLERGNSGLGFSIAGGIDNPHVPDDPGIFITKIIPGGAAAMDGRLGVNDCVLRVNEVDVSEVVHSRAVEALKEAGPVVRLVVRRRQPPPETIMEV

LIN7B, Q9HAP6 = biological target: T10, LIN7B, Q9HAP6
T10 sequence (Q9HAP6 88-185, limits assumed, looked up): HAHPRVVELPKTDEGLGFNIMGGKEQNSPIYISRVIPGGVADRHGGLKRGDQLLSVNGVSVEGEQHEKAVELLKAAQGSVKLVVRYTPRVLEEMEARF

TJP1_3, Q07157 = biological target: TJP1_3, Q07157
FRMPD2_3, Q68DX3 = biological target: FRMPD2_3, Q68DX3
DLG3_3, Q92796 = biological target: T11, DLG3_3, Q92796
T11 sequence (Q92796 374-475, limits assumed, looked up): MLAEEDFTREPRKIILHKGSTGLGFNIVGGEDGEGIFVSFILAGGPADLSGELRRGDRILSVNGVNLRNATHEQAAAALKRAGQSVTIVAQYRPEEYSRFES

APBA1_1, Q02410 = biological target: T12, APBA1_1, Q02410
T12 sequence (Q02410 651-752, limits assumed, looked up): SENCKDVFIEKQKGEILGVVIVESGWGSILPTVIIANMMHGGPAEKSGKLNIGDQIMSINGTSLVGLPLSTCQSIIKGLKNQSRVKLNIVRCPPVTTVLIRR

[1] = plain residues with an end cap or a label only (N-terminal biotin on a linker: ttds)
[2] = plain residues with an end cap or a label only (N-terminal biotin on a linker: ahx)

Sequence of MAGI2_4, Q86UL8 (Q86UL8 772-865): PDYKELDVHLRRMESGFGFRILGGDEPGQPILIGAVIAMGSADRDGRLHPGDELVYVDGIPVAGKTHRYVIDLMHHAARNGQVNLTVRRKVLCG
Sequence of CASK, O14936 (O14936 487-570): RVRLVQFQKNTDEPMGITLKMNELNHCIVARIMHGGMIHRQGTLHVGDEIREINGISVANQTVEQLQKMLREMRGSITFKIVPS
Sequence of DLG4_2, P78352 (P78352 155-259): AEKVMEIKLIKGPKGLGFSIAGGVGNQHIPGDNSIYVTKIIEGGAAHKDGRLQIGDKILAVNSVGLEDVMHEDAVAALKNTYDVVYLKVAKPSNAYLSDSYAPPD
Sequence of FRMPD2_3, Q68DX3 (Q68DX3 1073-1166): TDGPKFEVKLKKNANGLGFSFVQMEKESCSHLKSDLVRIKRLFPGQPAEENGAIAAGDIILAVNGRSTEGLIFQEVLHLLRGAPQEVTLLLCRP
Sequence of NHERF4_4, Q86UT5 (Q86UT5 464-550): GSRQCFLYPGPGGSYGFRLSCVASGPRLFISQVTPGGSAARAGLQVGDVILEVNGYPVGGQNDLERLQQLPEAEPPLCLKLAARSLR
Sequence of LNX1_2, Q8TBB1 (Q8TBB1 371-470): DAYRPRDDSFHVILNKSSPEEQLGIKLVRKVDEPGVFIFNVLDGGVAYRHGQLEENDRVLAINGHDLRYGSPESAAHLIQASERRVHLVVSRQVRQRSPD
Sequence of Inadl_3, Q8NI35 (Q8NI35 359-469): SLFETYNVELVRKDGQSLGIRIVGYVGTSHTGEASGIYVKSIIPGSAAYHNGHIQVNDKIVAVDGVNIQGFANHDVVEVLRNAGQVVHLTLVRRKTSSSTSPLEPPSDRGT
Sequence of LNX1_1, Q8TBB1 (Q8TBB1 261-371): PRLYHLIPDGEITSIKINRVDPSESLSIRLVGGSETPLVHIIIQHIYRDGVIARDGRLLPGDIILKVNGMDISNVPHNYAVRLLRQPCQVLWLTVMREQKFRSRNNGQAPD
Sequence of MAGI1_1, Q96QZ7 (Q96QZ7 1-106): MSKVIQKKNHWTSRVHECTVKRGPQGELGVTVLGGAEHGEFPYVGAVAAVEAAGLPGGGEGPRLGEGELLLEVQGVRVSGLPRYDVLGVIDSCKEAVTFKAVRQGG
Sequence of GIPC2, Q8TF65 (Q8TF65 112-203): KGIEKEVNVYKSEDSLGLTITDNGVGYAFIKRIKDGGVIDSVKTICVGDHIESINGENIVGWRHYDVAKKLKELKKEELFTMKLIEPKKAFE
Sequence of TJP1_3, Q07157 (Q07157 416-512): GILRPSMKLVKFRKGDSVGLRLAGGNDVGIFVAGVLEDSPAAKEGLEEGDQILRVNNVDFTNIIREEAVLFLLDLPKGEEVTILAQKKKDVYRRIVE
Sequence of Inadl_9, Q8NI35 (Q8NI35 1530-1615): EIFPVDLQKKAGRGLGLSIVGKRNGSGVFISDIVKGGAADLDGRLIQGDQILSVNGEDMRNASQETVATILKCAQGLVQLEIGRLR
Sequence of MAGI2_6, Q86UL8 (Q86UL8 1141-1229): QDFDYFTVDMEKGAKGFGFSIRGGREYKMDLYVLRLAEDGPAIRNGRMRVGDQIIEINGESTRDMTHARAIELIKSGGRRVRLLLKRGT
Sequence of Inadl_8, Q8NI35 (Q8NI35 1425-1530): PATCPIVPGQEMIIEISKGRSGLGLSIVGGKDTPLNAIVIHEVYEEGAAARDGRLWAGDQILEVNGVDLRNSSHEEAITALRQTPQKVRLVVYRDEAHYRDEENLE

pKd (TJP3_3, O95049; [1]): below the threshold
pKd (PTPN13_1, Q12923; [1]): below the threshold
pKd (NHERF4_4, Q86UT5; [1]): below the threshold
pKd (Inadl_9, Q8NI35; [1]): below the threshold
pKd (TX1BP3, O14907; [1]): 4.18
pKd (GRIP1_2, Q9Y3R0; [1]): below the threshold
pKd (LNX1_2, Q8TBB1; [1]): below the threshold
pKd (MPP2, Q14168; [1]): below the threshold
pKd (GIPC2, Q8TF65; [1]): 3.67
pKd (Inadl_8, Q8NI35; [1]): below the threshold
pKd (MAGI2_6, Q86UL8; [1]): 4.63
pKd (NHERF3_3, Q5T2W1; [1]): below the threshold
pKd (DLG3_2, Q92796; [1]): 4.88
pKd (Inadl_3, Q8NI35; [1]): below the threshold
pKd (LNX1_1, Q8TBB1; [1]): below the threshold
pKd (CASK, O14936; [1]): below the threshold
pKd (MAGI2_4, Q86UL8; [1]): below the threshold
pKd (SNTG1, Q9NSN8; [1]): 5.4
pKd (DLG4_2, P78352; [1]): 4.96
pKd (MAGI1_1, Q96QZ7; [1]): below the threshold
pKd (DLG3_1, Q92796; [1]): 4.26
pKd (LIN7B, Q9HAP6; [1]): 4.09
pKd (TJP1_3, Q07157; [1]): below the threshold
pKd (FRMPD2_3, Q68DX3; [1]): 3.71
pKd (DLG3_3, Q92796; [1]): 4.42
pKd (APBA1_1, Q02410; [1]): below the threshold
Binder: IQREDQETAV [DGKZ, Q13574]

pKd (TJP3_3, O95049; [2]): below the threshold
pKd (PTPN13_1, Q12923; [2]): below the threshold
pKd (NHERF4_4, Q86UT5; [2]): below the threshold
pKd (Inadl_9, Q8NI35; [2]): below the threshold
pKd (TX1BP3, O14907; [2]): below the threshold
pKd (GRIP1_2, Q9Y3R0; [2]): below the threshold
pKd (LNX1_2, Q8TBB1; [2]): below the threshold
pKd (MPP2, Q14168; [2]): below the threshold
pKd (GIPC2, Q8TF65; [2]): below the threshold
pKd (Inadl_8, Q8NI35; [2]): below the threshold
pKd (MAGI2_6, Q86UL8; [2]): below the threshold
pKd (NHERF3_3, Q5T2W1; [2]): below the threshold
pKd (DLG3_2, Q92796; [2]): below the threshold
pKd (Inadl_3, Q8NI35; [2]): below the threshold
pKd (LNX1_1, Q8TBB1; [2]): below the threshold
pKd (CASK, O14936; [2]): below the threshold
pKd (MAGI2_4, Q86UL8; [2]): below the threshold
pKd (SNTG1, Q9NSN8; [2]): below the threshold
pKd (DLG4_2, P78352; [2]): below the threshold
pKd (MAGI1_1, Q96QZ7; [2]): below the threshold
pKd (DLG3_1, Q92796; [2]): below the threshold
pKd (LIN7B, Q9HAP6; [2]): below the threshold
pKd (TJP1_3, Q07157; [2]): below the threshold
pKd (FRMPD2_3, Q68DX3; [2]): below the threshold
pKd (DLG3_3, Q92796; [2]): below the threshold
pKd (APBA1_1, Q02410; [2]): below the threshold
Binder: SSSNSEDTEM [NHERF3, Q5T2W1]
